One molecule from publication PMC7846482 (The Journal of Biological Chemistry, 2021) can be followed below.

In the assay the target is T1, SΔTM deglycosylated by PNGase F (trimeric spike protein without transmembrane domain) (SARS-CoV-2 Wuhan-Hu-1, UniProt P0DTC2, stabilised, deglycosylated by PNGase F).
T1 construct: also called nonglycosylated SΔTM; deglycosylated spike protein
In words: western blotting. The following applies: both partners purified.

B1: mouse anti-SARS-CoV-2 spike monoclonal antibody clone R31 (antibody, V domains shown)
VH: QVQLQQSGAELVRPGTSVKISCKASYTFTNYWLAWVKQRPGHGLEWIGDIYPGGAYTNFNEKFKGKATLTADTSSSTAYMQLSSLTSEDSAVYFCARDGHYGYAMDYWGQGTSVTVSS
VL: DIVMTQAAFSNPVTLGTSASISCRSSKSLLHSNGITYLYWYLQKPGQSPQLLIYQMSDLASGVPDRFSSSGSGTDFTLRISRVEAEDVGVYYCAQNLELPRTFGGGIKLEIK
Take B1: the binding result is “binds”.
